One test concerns the target T1, BVP.
T1 construct: polyreactivity control; a protein mixture; also called Baculo Virus Protein Extract; baculovirus protein
The test can be described thus: ELISA on baculovirus protein extract (BVP).

Test [1] addresses T2, human B-Cell Maturation Antigen (BCMA) (human, UniProt Q02223 1-54, limits assumed).
T2 construct: also called CD269; TNFRSF17
T2 sequence (looked up): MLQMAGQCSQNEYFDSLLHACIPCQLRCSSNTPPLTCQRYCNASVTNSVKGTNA
In words: ELISA, supernatant UniAb on human BCMA ECD (Abcam ab50089), detection goat anti-human IgG HRP. On the technique in general: ELISA stands for enzyme-linked immunosorbent assay.
Experimental: Supernatants of 6 antibodies were tested for binding in a standard ELISA assay to a human BCMA. Binding to recombinant BCMA protein was determined by ELISA using human BCMA ECD obtained from Abcam (ab50089). The BCMA ECD protein was used at a concentration of 2 μg/mL to capture UniAbs at 50 ng/mL. […] All antibodies were diluted in 1×TBS with 0.05% Tween-20 and 1% dry milk powder.

A further test has as its target T3, Lambda.
T3 construct: off-target control antigen; also called human lambda protein
The test can be described thus: ELISA on human lambda protein.

Test [2] concerns the target T2, human B-Cell Maturation Antigen (BCMA). In words: BioLayer Interferometry, Octet QK384, kinetics mode; bivalent form.
Experimental: (§1) As used herein, the “Kd” or “Kd value” refers to a dissociation constant determined by BioLayer Interferometry, using an Octet QK384 instrument (Fortebio Inc., Menlo Park, Calif.) in kinetics mode. For example, anti-mouse Fc sensors are loaded with mouse-Fc fused antigen and then dipped into antibody-containing wells to measure concentration dependent association rates (kon). Antibody dissociation rates (koff) are measured in the final step, where the sensors are dipped into wells containing buffer only. The Kd is the ratio of koff/kon.
Test [3] shares this target. In words: BioLayer Interferometry, Octet QK384, kinetics mode. For orientation: In BLI a coated tip is dipped into the sample, and binding shifts an interference pattern.
Experimental: as §1
For another test, the target named is T4, IgG1k.
T4 construct: off-target control antigen; also called human IgG1 kappa protein
The test can be described thus: ELISA, UniAb captures human IgG1 kappa, detection goat anti-human kappa HRP.

A further test addresses T5, HSA (Homo sapiens).
T5 construct: off-target control antigen; also called human serum albumin
In words: ELISA on human serum albumin.

Test [4] deals with T2, human B-Cell Maturation Antigen (BCMA). The test can be described thus: BioLayer Interferometry, Octet QK384, kinetics mode; monovalent form.
Experimental: as §1

T5 sequence (P02768 25-609): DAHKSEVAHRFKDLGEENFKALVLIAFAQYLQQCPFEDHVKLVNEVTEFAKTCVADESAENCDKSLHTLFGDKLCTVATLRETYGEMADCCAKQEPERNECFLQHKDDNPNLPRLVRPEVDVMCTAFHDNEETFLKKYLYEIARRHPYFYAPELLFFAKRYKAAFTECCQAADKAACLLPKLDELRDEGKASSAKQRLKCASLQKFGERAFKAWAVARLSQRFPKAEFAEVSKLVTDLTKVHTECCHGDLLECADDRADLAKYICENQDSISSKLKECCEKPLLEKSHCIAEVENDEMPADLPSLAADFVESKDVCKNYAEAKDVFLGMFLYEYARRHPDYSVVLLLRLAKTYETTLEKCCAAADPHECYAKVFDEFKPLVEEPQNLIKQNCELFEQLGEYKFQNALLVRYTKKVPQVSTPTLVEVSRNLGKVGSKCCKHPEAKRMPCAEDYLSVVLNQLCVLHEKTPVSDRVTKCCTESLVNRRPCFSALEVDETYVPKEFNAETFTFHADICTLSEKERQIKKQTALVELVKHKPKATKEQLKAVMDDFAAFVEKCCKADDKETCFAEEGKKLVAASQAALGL
Experimental for BVP: Off-target binding to Baculo Virus Protein Extract (BVP) was conducted by ELISA as above, with the modification of using 1×PBS and 1% dry milk powder for the diluent. BVP extract was obtained from INSERM (Nantes, France).

B1: anti-BCMA heavy chain-only antibody 308902, bivalent form (antibody, V domains shown)
VH: EVQLLESGGGLVQPGGSLRLSCAASGFTVSSYGMSWVRQAPGKGPEWVSGIRGSDGSTYYADSVKGRFTISRDNSKNTLYLQMNSLRAEDTAVYYCAKQGENDGPFDHRGQGTLVTVSS
notes: Heavy chain-only antibody with no light chain; UniAbs were expressed in HEK cells with CH1 deleted; also called UniAb 308902 (bivalent)
Usually koff stands for a measure of how fast the partners let go of each other. Lower therefore signals slow dissociation. In general, kon refers to the rate constant with which the complex forms. Read a low kon as slower complex formation. Consider B1, for which, in the test with BVP, the “ELISA Binding Ratio (expt signal / dilutent only), BVPscore” value was 1.1. In addition, the “ELISA Binding Ratio (expt signal / dilutent only)” value in test [1] was determined as 868; with Lambda, 1.1; in the test with IgG1k, 1.1; with HSA, 0.8. The molecule also came in with a Kd in test [2] of 0.053 nM. In test [3], this molecule returned a koff of 0.000177 s⁻¹. In addition, the kon in test [3] was found to be 3.38e+06 M⁻¹ s⁻¹.

B2: anti-BCMA heavy chain-only antibody 308902, monovalent form (antibody, V domains shown)
VH: B1 VH
notes: Heavy chain-only antibody with no light chain; UniAbs were expressed in HEK cells with CH1 deleted; also called UniAb 308902 (monovalent)
In test [4], B2 had a Kd of 0.779 nM. Besides, in test [3], the koff is 0.000719 s⁻¹ and the kon is 923000 M⁻¹ s⁻¹.

(Values after patent publication US20200157232A1 (TENEOONE, published 2020).)
